Laboratory results from PMC12207370, “Macrocyclic Peptide Probes for Immunomodulatory Protein CD59: Potent Modulators of Bacterial Toxin Activity and Antibody‐Dependent Cytotoxicity” (Angewandte Chemie (International Ed. in English), 2025).

Target: T1, biotinylated CD59 (Homo sapiens, UniProt P13987)
T1 construct: Recombinant soluble human CD59 with an additional C-terminal cysteine residue
T1 sequence (P13987 26-102 limits assumed): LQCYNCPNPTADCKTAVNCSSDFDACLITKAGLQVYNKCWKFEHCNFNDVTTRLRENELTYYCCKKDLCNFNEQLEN
Test: mRNA-display cyclic peptide screen against CD59-biotin, NGS abundance after 6th selection round
Settings: for Counts (raw counts for peptide sequence), Seq I: NGS sample Seq I; for Counts (raw counts for peptide sequence), Seq I / Counts (raw counts for peptide sequence), Seq II / Counts Seq I / Counts Seq II: sheet R6 (6th selection round); for Counts (raw counts for peptide sequence), Seq II: NGS sample Seq II; for Percentage of the pool, averaged across the two sequencing samples: average of Seq I and Seq II; for Percentage of the pool, averaged across the two sequencing samples / Percentage of the pool, Seq I / Percentage of the pool, Seq II / Percentage Seq I / Percentage Seq II / Percentage Average: sheet R6; for Percentage of the pool, Seq I: counts normalised by total counts of NGS sample Seq I; for Percentage of the pool, Seq II: counts normalised by total counts of NGS sample Seq II; for Percentage Seq I: counts normalised by total counts of sample Seq I; for Percentage Seq I / Percentage Seq II: percentage of the pool; for Percentage Seq II: counts normalised by total counts of sample Seq II; for Percentage Average: percentage of the pool averaged across the two sequencing samples; for Counts Seq I / Counts Seq II: raw NGS counts of peptide sequence; for Counts Seq I: sequencing sample Seq I; for Counts Seq II: sequencing sample Seq II
Text: To discover novel non‐protein CD59 ligands, we screened a library of 10^12 cyclic peptides against CD59 using mRNA‐display (Figure 2a).^[ [23], [24], [25], [26], [27], [28], [29] ^] Briefly, an mRNA library was designed in which the start codon was reprogrammed from Met to N‐chloroacetyl‐D‐Tyr (ClAc‐D‐Tyr), followed by 10–12 randomly encoded natural amino acids, a Cys residue, a (GlySer)3 linker, and a stop codon. […] The total library diversity was 1.51 × 10^13 molecules, comprising 5.02 × 10^12 molecules of each macrocycle size, covering a subset of the maximum theoretical diversity of this library design. Following in vitro translation, ClAc‐D‐Tyr spontaneously reacts with either the C‐terminal Cys or a Cys in the random region, yielding macrocyclic thioether peptides. Hits from the library were identified through iterative enrichment and amplification against biotinylated CD59, then immobilized on streptavidin beads. Fifteen hit sequences (CP‐01 to CP‐15), enriched with abundance >1% relative to the total pool of recovered binders after the 6th round of selection, were synthesized by solid phase peptide synthesis (SPPS), without the (Gly‐Ser)3 linker.
Figure 2 Discovery of macrocyclic peptide ligands with nanomolar CD59 affinity using mRNA display. a) The selection process. PCR = polymerase chain reaction, SPPS = solid phase peptide synthesis. b) Table showing details of the peptides with nanomolar affinity for CD59 as well as the binding affinity of the lead inhibitor of CD59, rILYd4. K D values are presented as the average of three technical replicates ± SEM. Structures of all peptides and SPR sensograms are presented in Figures S1 and S2. *indicates the presented sequences are the variable regions of these cyclic peptides; each is flanked by an N‐terminal Ac‐D‐Tyr cyclized to a C‐terminal Cys. R6 abundance (%) is defined as (the given number of NGS reads for a given sequence/the total number of reads of unique sequences observed in NGS)*100 following the 6th selection round. c) Representative sensogram of the interaction between CP‐06 with immobilized CD59 by SPR analysis. Inset showing the equilibrium binding curve of CP‐06 to CD‐59. Below in the box are the association and dissociation rate constants of CP‐06. Concentrations are plotted in descending order from 800‐3.1 nM in line with their position on the legend. […] (nM)'; the box with Kon/Koff has no label of its own / ILYd4: the label may be cut off at the left edge (possibly 'rILYd4') / CP-02, KD: 15.3 ± 0.2, small print, 3 or 8 uncertain / CP-03, KD: 23.4 ± 0.7, small print / CP-06, KD: 11.3 ± 0.0, small print, 3 or 8 uncertain / CP-13, KD: 10.8 ± 0.7, small print, 8 or 6 uncertain / ILYd4, KD: 48.3 ± 1.1, small print, 8 and 3 uncertain
The mRNA-display cyclic peptide screen was performed against CD59-biotin by T.E.M: DNA templates for transcription were generated by PCR in a similar manner to that previously described.^2 RNA oligonucleotides were transcribed from the DNA templates using T7 RNA polymerase and purified by phenol/chloroform extraction followed by ethanol precipitation. Oligonucleotide concentrations were determined spectroscopically by absorbance at 260 nm. In the first selection round a 1:1:1 molar ratio of NNK10/NNK11/NNK12 was used. The procedure for selection rounds 2-6 is described below; round 1 was conducted at twice the scale.
RNA encoding for the peptide library ligated to a puromycin-modified oligonucleotide was […] (final [RNA] = 2.5 µM) using a customised PURE express kit (lacking release factor 1 and methionine, supplemented with […] initiator tRNA acylated with N-chloroacetyl-d-tyrosine prepared as previously described)^3 in a final volume of 5.6 µL for 1 hour at 37 °C.
This mixture was incubated at 42 °C for 1 hour before being diluted to 500 µL with PBS (10 mM Na-PO4 pH 7.4, 2.7 mM KCl, 137 mM NaCl) and 0.5 µL taken for subsequent use in qPCR. […]

Sequence | Counts (raw counts for peptide sequence), Seq I | Counts (raw counts for peptide sequence), Seq II | Percentage of the pool, averaged across the two sequencing samples [%] | Percentage of the pool, Seq I [%] | Percentage of the pool, Seq II [%] | Percentage Seq I [%] | Percentage Seq II [%] | Percentage Average [%] | Counts Seq I | Counts Seq II
CLRKTRDILSV | 65 | 6 | 0.014 | 0.015 | 0.014 | – | – | – | – | –
CLRLHREPGSL | – | – | – | – | – | 0.103 | 0.135 | 0.119 | 449 | 58
CLRRHVTASDV | – | – | – | – | – | 0.040 | 0.023 | 0.031 | 174 | 10
CLRRSFLDNAGV | 57 | 7 | 0.015 | 0.013 | 0.016 | – | – | – | – | –
CLRRSYEATSI | – | – | – | – | – | 0.020 | 0.021 | 0.021 | 88 | 9
CPQLILRGWQ | – | – | – | – | – | 0.030 | 0.044 | 0.037 | 133 | 19
CPRYVSRGFA | 72 | 5 | 0.014 | 0.016 | 0.012 | – | – | – | – | –
CRGNRFYQLSFH | – | – | – | – | – | 0.154 | 0.186 | 0.170 | 674 | 80
CSAGRLTIDAV | 37 | 6 | 0.011 | 0.00846 | 0.014 | – | – | – | – | –
CSRLTSRGWT | 62 | 5 | 0.013 | 0.014 | 0.012 | – | – | – | – | –
CSSLRARGWI | 75 | 3 | 0.012 | 0.017 | 0.007 | – | – | – | – | –
CYAAGSASWSRG | 65 | 6 | 0.014 | 0.015 | 0.014 | – | – | – | – | –
CYGDRTFIYAWS | 53 | 10 | 0.018 | 0.012 | 0.023 | – | – | – | – | –
CYGGQTFIYAWS | – | – | – | – | – | 0.026 | 0.030 | 0.028 | 114 | 13
CYGGRAFIYAWS | – | – | – | – | – | 0.042 | 0.044 | 0.043 | 185 | 19
CYGGRSFIYAWS | 47 | 6 | 0.012 | 0.011 | 0.014 | – | – | – | – | –
CYGGRTFIHAWS | – | – | – | – | – | 0.054 | 0.049 | 0.051 | 237 | 21
